In the nanobody polyreactivity screen of Harvey et al. (2022):

Assay: yeast display, Sf9 membrane polyspecificity reagent, FACS + sequencing; frameworks hold sequencing errors
Summary of the method: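 A nanobody's polyreactivity label depends on the gate it was sorted from. Yeast display cells were stained with 10% biotinylated, detergent-solubilized Sf9 membrane reagent for 1 hour at 4 °C, enriched on streptavidin microbeads and sorted by FACS. The low and high (top ~1%) gates were set on anti-HA fluorescence for expression and streptavidin fluorescence for reagent binding.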

| Sequence | polyreactivity (PSR sort gate) |
| --- | --- |
| LVQLVESGGGLVHAGGSLRLSCAASGSTFNIYAMGWYRQAPGKERELVAAISSSGGRTYYADSVKGRFTISRDNAKNTVYFQMIRLKPEDTAVYYCAARSRRVSLIRDSYGYWGQGTQVNVSS | high polyreactivity |
| LVQLVESGGGLVQAGGSLRLSCAASGNTFVSNAMGWYRQAPGKERELVAAIDSGGSTNYADSVKGRFTISRDNAKNTVYLQMNSLKPDDTAVYYCTRTSVYYYYWGQGTQVTVSS | low polyreactivity |
| LVQLVESGGGLVQAGGSLRLSCAASGRIFVGYAMGWFRQAPGKERELVAAISRRAGRTYYADSVKGRFTLSRDNAKNTVYLQMNSLKPEDTPVYYCIAPRYYPKAGFDYWGQGTQVTVSS | high polyreactivity |
| LVQLVESGGGLVQAGGSLRLSCAASGYIIGFYVMGWYRQAPGKERELVAVIDYGSDNTYYADSVLGRYTISRDNAKNTVYLQMNSLKPEETAVYYCAAEWYKSNYYDYDTWGQGTQVTVSS | high polyreactivity |
| LVQLVESRGGLVQAGGSLRLSCAASGRTFAWYAMGWYRPAPGKERELVAAISNVGSTYYADTVKGRFTISRDNAKNTVYLQMNSLKPEDTAVYYCNPDAVSTDGREYWGQGTQVTVSS | low polyreactivity |
| LVQLVETGGGLVQAGGSLRLSCAASGSVFYSYAMGWYRQAPGKERELVAAISFSGGSTYYADSVKGRFTISRDNAKNTVYLQMNSLKPEDTAVYYCNTLSADTFDYWGQGTQVTVSS | low polyreactivity |
| LVQLVQSGGGLVQAGGSLRLSCAASGRTFIGYAMGWYRQAPGKERELVAAITSDGGTNYADSVKGRFTISRDNAKNTVNLLMNSLKPEDTAVYDCAARRRVSYHLYGYWGQGTQVTVSS | high polyreactivity |
| NVQLVESGGGLVQAGGSLRLSCAASGSTFDYYDMGWYRQAPWKERELVATITSGGSTNYADSVKGRFTITRDNAKNTVYLLMHSLKPEDTAVYYCDARIRSVVPFDMDYWGQGTQVTVSW | low polyreactivity |
| PDQLVESGGGLVQAGGSLRLSCAASGFIFTYYAMGWYRQAPGKERELVAAITRRGGSTYYADSVKGRFTISRDNAKNTVYLQMNRLKPEDTAVYYCNKVDQGRYGYWGQGTQVTVSS | high polyreactivity |
| PLQLVESGGGLVQAGGSLRLSGAASGIIFNQYPMGWYRQAPGKEREFVPAISSSGGSTYYADSVKGRFTISRDYAKNTVYLQMNSLKPADTAVYFCSADSPGWTYTSRSYDYWGQGTQVTLSS | low polyreactivity |
| PVQLEESGGGLDQAGGSLRISCAASGRIFWAKAMGWYRQAPGKERELVAAINRRTGITYYADSVKGRFTISRDNAKNTVYFQMNSLKPEDTAVYYCAADWRTKCYDSLGQGTQVTVSS | high polyreactivity |
| PVQLQQSGSGLVQAGGSLRLSCAASGYISLGDNKGWYRQAPGKEREFDATISVGGITYYVDSVKGPFTISRDIAKNTVYLQMNSVKPEDTAVYYCAALDIYYLRYYYWGQGTQVTLSS | low polyreactivity |
| PVQLVESGGGLGQAGGSLRLSCAASGIIFNDYAMGWYRQAPGKERELVASIRSNTGSTNYADSVKGRFTISRDYAKNTVYLPMNSLKPEETAVSDCAADYLPDYGPRGGYWGQGTQVTVSS | low polyreactivity |
| PVQLVESGGGLGQAGGSLRLSCAASGLTFGRYAMGWYRQAPGKERELVAAITRSGGRTYYADSVKGRFTISRDNAKNTVYLQMNSLKPEDTAVYYCNTRSHLGAPGDPDDYWGQGTQVTVTS | high polyreactivity |
| PVQLVESGGGLGQAGGSLRLSCAASGRIFYLYAMGWYRQAPGKERELVATIDSSGDSTFYADSVKGRFTISRDNAKNTVYLQMNSLKPEDTAVYNCAADEVSSYDYGYKGRYDYWGQGTQVTVSS | low polyreactivity |
| PVQLVESGGGLVQAGGSLRLSCAASGRTFGYNAMGWYRQAPGKERELVASISYRGGSTYYADSVKGRFTISRDNAKNTVYLQMNSLKPEDTAVYYCNKYYVWREYYWGQGTQVNVSS | high polyreactivity |
| PVQLVESGGGLVQAGGSLRLSCAASGRTFYKYAMGWYRQAPGKERELVAAISKSGGRTYYADSVKGRFTISRDNAKNTVYLQMNSLKPEDTAVYYCAAEPFIPDQSRYYYWGQGTQVTVSS | high polyreactivity |
